Assay results: patent publication US20240417436A1 (BRIGHT PEAK THERAPEUTICS, published 2024)
Read-outs that look alike come from different tables or passages of the source. Bridges are numbered along the chain shown (N, C = ends). [ ]: non-standard residue; d: D form. Ygp = O-(8x polyethylene glycol-amino)-tyrosine; Yn3 = O-(9x polyethylene glycol-azido)-tyrosine; hSer = N[C@@H](CCO)C(=O)O; Nle = CCCC[C@H](N)C(=O)O

What was measured:
[1] = biological target: T1, recombinant human IL-2 receptor beta containing a His-tag and Avi-Tag (R&D Systems #AVI10459) (human, UniProt P14784 27-239); assay: BLI (Octet), receptor on SAX2 sensor, IL-2 as analyte; construct CMP-165, intact (not the MMP2-treated row r16)
T1 construct: bought protein, held on the Octet SAX2 sensor; also called CD122; IL-2Rβ
T1 sequence (looked up): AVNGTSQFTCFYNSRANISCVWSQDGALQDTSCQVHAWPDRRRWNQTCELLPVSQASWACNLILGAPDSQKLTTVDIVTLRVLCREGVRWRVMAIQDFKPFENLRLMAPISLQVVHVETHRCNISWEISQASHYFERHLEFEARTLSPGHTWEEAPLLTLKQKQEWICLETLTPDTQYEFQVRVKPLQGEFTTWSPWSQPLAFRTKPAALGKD
Description: (§1) Bilayer interferometry (BLI) assays were used to measure the binding constants between activatable IL-2 polypeptides (and activated versions thereof) to IL-2 receptor subunits or receptor complexes. BLI assays were conducted on an Octet® R8 instrument. Assay plates were 96 well, polypropylene, F-bottom (chimney well), black microplates (Greiner Bio-one, Cat. No: 655209). The biosensors were Octet® SAX2 (Sartorius, Cat. No: 18-5136). The assay buffer was 1× Kinetic Buffer (Sartorius, Cat. no: 18-5136) or Phosphate Buffered Saline (PBS) that contained 0.02% (v: v) Tween 20 (Polysorbate 20) and 0.1% (w/v) bovine serum albumin (BSA). The sensor was regenerated between measurements in 10 mM glycine pH 2.7 buffer.
(§2) Sensor attached receptors were either recombinant human IL-2 receptor beta containing a His-tag and Avi-Tag™ (R&D Systems™ #AVI10459) or an Avi-Tag™ Fc with human IL-2R beta and IL-2R gamma attached (Acrobiosystems Cat. no: ACRB-ILG-H82F3-25UG). Receptors were reconstituted from lyophilized powder to 500 μg/ml in PBS. Analytes were diluted in Kinetic buffer to 300 nM, then serially diluted to lower concentrations.

[2] = biological target: T1, recombinant human IL-2 receptor beta …; assay: BLI (Octet), receptor on SAX2 sensor, IL-2 as analyte; construct CMP-151, macrocyclic activatable IL-2 polypeptide
Description: as §1, §2

[3] = biological target: T2, IL-2 receptor βγ complex on pan T cells (human, UniProt P14784 27-551; P31785 23-369); assay: cell-based or functional assay
T2 sequence (looked up) 1: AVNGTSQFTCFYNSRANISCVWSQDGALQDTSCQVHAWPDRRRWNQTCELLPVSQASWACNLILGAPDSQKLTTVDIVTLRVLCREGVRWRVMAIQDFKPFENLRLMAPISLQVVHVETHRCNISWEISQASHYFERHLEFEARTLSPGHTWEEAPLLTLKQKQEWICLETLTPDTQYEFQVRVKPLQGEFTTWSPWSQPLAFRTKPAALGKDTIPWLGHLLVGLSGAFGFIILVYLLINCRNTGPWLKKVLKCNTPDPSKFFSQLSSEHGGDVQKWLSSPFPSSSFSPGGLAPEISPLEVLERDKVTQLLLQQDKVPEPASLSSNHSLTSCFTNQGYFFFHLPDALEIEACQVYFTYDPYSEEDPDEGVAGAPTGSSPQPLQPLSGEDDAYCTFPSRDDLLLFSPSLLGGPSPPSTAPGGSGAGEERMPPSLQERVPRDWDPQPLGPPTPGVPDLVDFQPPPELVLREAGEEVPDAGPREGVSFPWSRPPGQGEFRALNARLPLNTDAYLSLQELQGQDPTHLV
T2 sequence (looked up) 2: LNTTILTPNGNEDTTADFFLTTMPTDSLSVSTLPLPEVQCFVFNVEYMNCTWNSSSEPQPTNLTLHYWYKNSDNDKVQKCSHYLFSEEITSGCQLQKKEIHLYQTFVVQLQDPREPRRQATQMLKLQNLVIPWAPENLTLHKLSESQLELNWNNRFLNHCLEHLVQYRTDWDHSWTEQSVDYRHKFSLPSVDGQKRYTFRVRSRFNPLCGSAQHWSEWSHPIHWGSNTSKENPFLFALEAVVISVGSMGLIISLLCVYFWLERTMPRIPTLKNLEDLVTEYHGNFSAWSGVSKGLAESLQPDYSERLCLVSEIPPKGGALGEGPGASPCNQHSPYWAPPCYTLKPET

[4] = biological target: T3, recombinant Human Fc gamma RI/CD64 Protein (R&D systems, 1257-FC-050) (human, UniProt P12314 16-288); assay: ELISA, test molecule coated, human CD64 titrated
T3 construct: also called human FcgR I (CD64); FcγRI
Description: FcγRI (CD64) Binding Assays—The interaction of the activatable immunocytokines with human Fc gamma receptors I (FcγRI/CD64) was measured by ELISA. Briefly, Corning high-binding half-area plates (Fisher Scientific, Reinach, Switzerland) were coated overnight at 4° C. with 25 μl of immunocytokines at […] in PBS. Plates were then washed four times with 100 μl of PBS-0.2% Tween20 (wash buffer). Plates surfaces were blocked with 25 μl of PBS1% BSA at 37° C. for 1h. Plates were then washed four times with wash buffer. Then twenty-five microliters of either recombinant Human Fc gamma RI/CD64 Protein (R&D systems, 1257-FC-050, CF) was added in serial dilutions into PBS-T-0.1% BSA and incubated at 37° C. for 2h. Plates were then washed four times with 100 μl of wash buffer. Twenty-five microliters of Streptavidin-Horseradish peroxidase (#RABHRP3, Merck, Buchs, Switzerland) diluted into PBS-T-0.1% BSA were added to each well and incubated at Room Temperature for 1h. Plates were then washed four times with wash buffer. TMB substrate reagent (#CL07, Merck, Buchs, Switzerland) were added to each well and incubated for 5 min. After 5 min, Horseradish peroxidase reaction was stopped by adding 1M H2SO4 stop solution. ELISA signal was then measured at 450 nm on a plate reader.

mouse FcRn = biological target: T4, mouse FcRn (mouse, UniProt Q61559 22-297; P01887 21-119, limits assumed); assay: analogous AlphaLISA protocol with mouse FcRn
T4 construct: construct not described
T4 sequence (looked up): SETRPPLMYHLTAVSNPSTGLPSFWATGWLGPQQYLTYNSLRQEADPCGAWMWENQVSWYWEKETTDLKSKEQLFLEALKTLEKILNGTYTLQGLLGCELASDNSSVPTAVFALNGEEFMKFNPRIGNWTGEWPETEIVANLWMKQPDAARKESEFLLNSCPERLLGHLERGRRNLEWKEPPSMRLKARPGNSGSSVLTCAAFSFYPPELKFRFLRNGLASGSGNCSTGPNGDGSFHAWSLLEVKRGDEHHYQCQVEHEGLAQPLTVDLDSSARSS
T4 sequence (b2m, looked up): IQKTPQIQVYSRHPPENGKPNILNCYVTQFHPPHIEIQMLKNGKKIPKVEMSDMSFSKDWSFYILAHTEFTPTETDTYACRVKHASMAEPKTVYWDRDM
Description: (§3) FcRn Binding Assays—The ability of the activatable immunocytokines to bind to FcRn receptor was performed following manufacturer's instructions using the AlphaLISA FcRn Human Binding kit, Perkin Elmer, Cat #AL3095C. An analogous protocol was performed husing mouse FcRn.

mouse CD64 = biological target: T5, mouse CD64 (mouse, UniProt P26151 25-297, limits assumed); assay: ELISA, analogous protocol with mouse CD64
T5 construct: construct not described; also called mouse FcgR I (CD64)
T5 sequence (looked up): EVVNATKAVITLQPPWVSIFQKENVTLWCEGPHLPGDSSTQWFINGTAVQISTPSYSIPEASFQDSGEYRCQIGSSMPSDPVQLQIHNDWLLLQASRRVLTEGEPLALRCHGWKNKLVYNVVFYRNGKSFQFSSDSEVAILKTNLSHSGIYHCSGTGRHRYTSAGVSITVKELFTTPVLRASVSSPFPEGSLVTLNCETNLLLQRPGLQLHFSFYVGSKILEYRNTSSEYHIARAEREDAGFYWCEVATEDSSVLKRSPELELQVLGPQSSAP

[5] = biological target: human PD-1 on Jurkat T cells (PD-1/PD-L1 Blockade Bioassay) (human, UniProt Q15116 25-288); assay: cell-based or functional assay
[6] = biological target: T6, recombinant biotinylated PD1/CD279 protein (Biolegend 789406) (human, UniProt Q15116 25-167, limits assumed, biotinylated); assay: ELISA, test molecule coated, biotinylated PD-1 titrated, streptavidin-HRP
T6 construct: also called human PD1
Description: Plates were then washed four times with 100 μl of PBS-0.2% Tween20 (wash buffer). […] Plates were then washed four times with 100 μl of wash buffer. […] Plates were then washed four times with wash buffer. […] Plates were then washed four times with 100 μl of wash buffer. Fifty microliters of TMB substrate reagent (#CL07, Merck, Buchs, Switzerland) were added to each well and incubated at 37° C. during 5 min. After 5 min at 37° C., Horseradish peroxidase reaction was stopped by adding 50 μl/well of 0.5M H₂SO₄ stop solution. ELISA signal was then measured at 450 nm on an EnSpire plate reader from Perkin Elmer (Schwerzenbach, Switzerland).

[7] = biological target: T7, human FcRn (AlphaLISA FcRn Human Binding kit, Perkin Elmer AL3095C) (human, UniProt P55899 24-297; P61769 21-119, limits assumed); assay: AlphaLISA FcRn Human Binding kit (competition)
T7 construct: kit reagent, construct not described
Description: as §3

[8] = biological target: T1, recombinant human IL-2 receptor beta …; assay: BLI (Octet), receptor on SAX2 sensor, IL-2 as analyte; construct CMP-168, intact (not the MMP2-treated row r13)
Description: as §1, §2

[9] = biological target: T1, recombinant human IL-2 receptor beta …; assay: BLI (Octet), receptor on SAX2 sensor, IL-2 as analyte
Description: as §1, §2

[10] = biological target: T8, Avi-Tag Fc with human IL-2R beta and IL-2R gamma attached (Acrobiosystems ACRB-ILG-H82F3-25UG) (human, UniProt P14784 27-239; P31785 23-262); assay: as above
T8 construct: bought heterodimer; also called CD122 CD132; CD122/CD132 complex
T8 sequence (looked up) 1: T1 sequence (looked up)
T8 sequence (looked up) 2: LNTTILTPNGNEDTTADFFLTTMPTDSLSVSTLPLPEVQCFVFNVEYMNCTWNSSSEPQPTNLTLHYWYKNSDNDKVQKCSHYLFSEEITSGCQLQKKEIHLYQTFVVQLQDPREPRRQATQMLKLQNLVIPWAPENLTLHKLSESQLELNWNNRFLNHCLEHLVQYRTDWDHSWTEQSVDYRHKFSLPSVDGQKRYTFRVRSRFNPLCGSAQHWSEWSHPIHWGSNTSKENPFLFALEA
Description: as §1, §2

[11] = biological target: T2, IL-2 receptor βγ complex on pan T cells; assay: cell-based or functional assay; remark: listed apart in the source

B1: CMP-165 (ligand)
chain: APTSSSTKKTQLQLEHLLLDLQKILNGINNYKNPKLTR[Nle]L[hSer][Yn3]KF[Ygp][Nle]PKKATELKHLQCLEEELKPLEEVL[hSer]LAQSKNFHLRPRDLISNINVIVLELKGSETTF[hSer]CEYADETATIVEFLNRWITFSQSIISTLT
modifications: disulfide 58-105 (inferred); bridge N-23; not fully specified (bridges)
Kd [1]: 44200 nM

B2: CMP-151 (ligand)
chain: APTSSSTKKTQLQLEHLLLDLQKILNGINNYKNPKLTR[Nle]L[hSer][Yn3]KF[Ygp][Nle]PKKATELKHLQCLEEELKPLEEVL[hSer]LAQSKNFHLRPRDLISNINVIVLELKGSETTF[hSer]CEYADETATIVEFLNRWITFSQSIISTLT
modifications: disulfide 58-105; bridge N-23; not fully specified (bridges)
Kd [2]: 65.4 nM | Average EC50, pSTAT5 assay in pan T cells, intact molecule [3]: 28.2 nM

B3: LZM-009 (antibody, human IgG4 S228P, kappa)
heavy: not shown
light: EIVLTQSPATLSLSPGERATISCRASKGVSTSGYSYLHWYQQKPGQAPRLLIYLASYLESGVPARFSGSGSGTDFTLTISSLEPEDFATYYCQHSRELPLTFGTGTKVEIKRTVAAPSVFIFPPSDEQLKSGTASVVCLLNNFYPREAKVQWKVDNALQSGNSQESVTEQDSKDSTYSLSSTLTLSKADYEKHKVYACEVTHQGLSSPVTKSFNRGEC
notes: unconjugated anti-PD-1 IgG4; also called LZM-009 Intact
EC50 [4]: 0.32 nM | EC50 (mouse FcRn): 0.77 nM | EC50 (mouse CD64): 554 nM | Mean EC50, PD1/PD-L1 blockade (NFAT-RE luciferase reporter) [5]: 7.34 nM | EC50 [6]: 0.05 nM | IC50 [7]: 5.79 nM

B4: CMP-168 (ligand)
chain: APTSSSTKKTQLQLEHLLLDLQEILNGINNYKNPKLTR[Nle]L[hSer][Yn3]KF[Ygp][Nle]PKKATELKHLQCLEEELKPLEEVL[hSer]LAQSKNFHLRPRDLISNINVIVLELKGSETTF[hSer]CEYADETATIVEFLNRWITFSQSIISTLT
modifications: disulfide 58-105 (inferred); bridge 9-23; not fully specified (residue 23, bridges)
Kd [8]: 25100 nM | koff [9]: 0.0721 s⁻¹ | kon [9]: 2880 M⁻¹ s⁻¹ | Kd [10]: 136 nM | koff [10]: 0.0022 s⁻¹ | kon [10]: 16200 M⁻¹ s⁻¹ | Average EC50, pSTAT5 assay in pan T cells, intact molecule [11]: 144 nM
